Experimental findings from article PMC4346194 are described below.

For assay [1], the target named is GST-tagged FL-importin α1 (mouse) (UniProt P52293). As to the kind of experiment: pull-down.
The target in assay [2] is GST-tagged FL-importin α7 (human) (UniProt O60684). Description: pull-down.

“MBP-tagged PB2-NLD-K718A (from UniProt P31345 678-759) (domain or fragment)”: the percent of importin α bound to cargo is 20% in assay [1] and 43% in assay [2].
